In patent publication US20150284467A1 (MAX DELBR CK CENTRUM F R MOLEKULARE MEDIZIN, published 2015):

Tests used:
[1] = target: T1, extracellular domain of human CD269 (BCMA, TNFRSF17), purified (human, UniProt Q02223 4-54); experiment: SPR, value printed beside the trace for 10.0 nM BCMA; neither quantity nor unit is printed on the sheet: the five printed values average 5.40E-11, which is the mean Kd of 54 pM in paragraph 181
T1 construct: also called BCMA extracellular domain
T1 sequence: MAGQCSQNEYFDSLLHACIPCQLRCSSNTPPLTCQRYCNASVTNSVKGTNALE

[2] = target: T1, extracellular domain of human CD269 …; experiment: SPR, value printed beside the trace for 3.3 nM BCMA; neither quantity nor unit is printed on the sheet: the five printed values average 5.40E-11, which is the mean Kd of 54 pM in paragraph 181
[3] = target: T1, extracellular domain of human CD269 …; experiment: SPR, value printed beside the trace for 30.0 nM BCMA; neither quantity nor unit is printed on the sheet: the five printed values average 5.40E-11, which is the mean Kd of 54 pM in paragraph 181
[4] = target: T1, extracellular domain of human CD269 …; experiment: SPR, value printed beside the trace for 1.1 nM BCMA; neither quantity nor unit is printed on the sheet: the five printed values average 5.40E-11, which is the mean Kd of 54 pM in paragraph 181
[5] = target: T1, extracellular domain of human CD269 …; experiment: SPR, value printed beside the trace for 90.0 nM BCMA; neither quantity nor unit is printed on the sheet: the five printed values average 5.40E-11, which is the mean Kd of 54 pM in paragraph 181
[6] = target: T1, extracellular domain of human CD269 …; experiment: surface plasmon resonance with several concentrations of BCMA (FIG. 1c)

Kd [1]: 0.0555 nM
Kd [2]: 0.0362 nM
Kd [3]: 0.0695 nM
Kd [4]: 0.021 nM
Kd [5]: 0.088 nM
Kd [6]: 0.054 nM
B1: J22.9-xi chimeric antibody (mouse VH/VL of hybridoma J22.9 on human IgG1 and kappa constant domains) (antibody, V domains shown)
VH: QVQLQQSGGGLVQPGGSLKLSCAASGIDFSRYWMSWVRRAPGKGLEWIGEINPDSSTINYAPSLKDKFIISRDNAKNTLYLQMSKVRSEDTALYYCASLYYDYGDAMDYWGQGTSVTVSS
VL: DIVMTQSQRFMTTSVGDRVSVTCKASQSVDSNVAWYQQKPRQSPKALIFSASLRFSGVPARFTGSGSGTDFTLTISNLQSEDLAEYFCQQYNNYPLTFGAGTKLELKR
modifications: N-linked oligosaccharide chain at Asn297
notes: Full length IgG made in 293-6E cells; the constant domains are marked 'Used in J22.9-xi'
